Assay results: paper PMC5589848, “BMP-2 induced Dspp transcription is mediated by Dlx3/Osx signaling pathway in odontoblasts”

Biological target: Dlx3 (recombinant) (UniProt O60479 1-287)
Assay: EMSA; anti-Dlx3 supershift; cold competitor 100x; EMSA as described previously (binding buffer not given); 5% native polyacrylamide gel in 1x TBE; 100-fold molar excess of unlabeled competitor
Settings: protein: recombinant; label: 32P; blunt

Dlx3 (recombinant), sequence (O60479 whole entry): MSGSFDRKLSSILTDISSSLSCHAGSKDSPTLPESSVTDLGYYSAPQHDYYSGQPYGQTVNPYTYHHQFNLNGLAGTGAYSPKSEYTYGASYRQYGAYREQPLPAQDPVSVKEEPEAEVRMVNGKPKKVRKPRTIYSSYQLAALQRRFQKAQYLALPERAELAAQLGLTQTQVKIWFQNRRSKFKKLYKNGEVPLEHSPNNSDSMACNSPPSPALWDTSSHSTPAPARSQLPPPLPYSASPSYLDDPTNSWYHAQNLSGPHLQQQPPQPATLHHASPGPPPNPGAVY

B1: Dlx3I Oligo (dsDNA)
DNA 1: GAGCTATTTAATTAAGTGAAA
DNA 2: TTTCACTTAATTAAATAGCTC
binding result: binds

B2: Dlx3II Oligo (dsDNA)
DNA 1: GTTGAGAAAATTATCAAACTGA
DNA 2: TCAGTTTGATAATTTTCTCAAC
binding result: binds
